Test results reported in patent publication US6391571.

What was measured:
[1] = biological target: monobiotinylated Fab' antibody fragment; test: BIAcore SPR, mutein immobilized on CM5 chip, Fab' at 12.5-400 nmol/l, 25 C
[2] = biological target: monobiotinylated Fab' antibody fragment; test: BIAcore SPR, mutein immobilized on CM5 chip, Fab' at 12.5-400 nmol/l, 25 C; first of 2 product lots
[3] = biological target: monobiotinylated Fab' antibody fragment; test: BIAcore SPR, mutein immobilized on CM5 chip, Fab' at 12.5-400 nmol/l, 25 C; second of 2 product lots
[4] = biological target: monobiotinylated Fab' antibody fragment; test: BIAcore SPR, mutein-thermo-BSA conjugate immobilized on CM5 chip, Fab' at 12.5-400 nmol/l, 25 C
[5] = biological target: monobiotinylated Fab' antibody fragment; test: BIAcore SPR, streptavidin immobilized on CM5 chip, Fab' at 12.5-400 nmol/l, 25 C

Chain of SA-Ser27Arg/Ser45Arg TBSA conjugate (P02769 25-607, change not shown): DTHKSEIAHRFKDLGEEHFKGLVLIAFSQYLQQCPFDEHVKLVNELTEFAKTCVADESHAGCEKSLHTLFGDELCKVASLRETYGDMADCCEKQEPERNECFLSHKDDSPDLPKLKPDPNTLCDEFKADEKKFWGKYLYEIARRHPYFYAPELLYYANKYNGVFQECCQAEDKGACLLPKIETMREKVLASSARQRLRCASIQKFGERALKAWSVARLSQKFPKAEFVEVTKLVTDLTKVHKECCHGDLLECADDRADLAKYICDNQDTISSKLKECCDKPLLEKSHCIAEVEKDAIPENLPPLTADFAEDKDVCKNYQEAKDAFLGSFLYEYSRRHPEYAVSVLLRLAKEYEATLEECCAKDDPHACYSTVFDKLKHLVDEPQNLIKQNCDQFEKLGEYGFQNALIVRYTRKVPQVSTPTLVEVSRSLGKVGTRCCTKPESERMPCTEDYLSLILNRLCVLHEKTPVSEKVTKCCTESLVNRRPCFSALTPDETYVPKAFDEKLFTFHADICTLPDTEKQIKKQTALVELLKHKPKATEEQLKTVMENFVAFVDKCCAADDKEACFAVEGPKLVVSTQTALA
Chain of core streptavidin (wild type streptavidin) (chain): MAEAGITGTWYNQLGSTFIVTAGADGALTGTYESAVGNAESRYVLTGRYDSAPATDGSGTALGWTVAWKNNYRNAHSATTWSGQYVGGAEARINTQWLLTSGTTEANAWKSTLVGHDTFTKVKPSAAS

| Substance | Ka [1] [M⁻¹] | koff [1] [s⁻¹] | kon [1] [M⁻¹ s⁻¹] | t/2 diss [1] [min] | other results |
| --- | --- | --- | --- | --- | --- |
| SA-Leu25Trp/Ser45Arg | 3.6e+08 | 0.00022 | 79000 | 51.8 |  |
| SA-Ser27Arg/Ser45Arg |  |  |  |  | Ka [2]: 4.2e+07 M⁻¹; kon [2]: 130000 M⁻¹ s⁻¹; t/2 diss [2]: 3.7 min; Ka [3]: 2.1e+07 M⁻¹; koff [3]: 0.0041 s⁻¹; kon [3]: 85000 M⁻¹ s⁻¹; t/2 diss [3]: 2.8 min |
| SA-Ser27Arg/Ser45Arg TBSA conjugate (from UniProt P02769 25-607) |  |  |  |  | Ka [4]: 3.3e+07 M⁻¹; koff [4]: 0.003 s⁻¹; kon [4]: 100000 M⁻¹ s⁻¹; t/2 diss [4]: 3.9 min |
| SA-Ser27Arg/Ser45Arg/Leu110Trp | 7.7e+06 | 0.0059 | 45000 | 2 |  |
| SA-Ser45Trp/Leu110Trp | 6.1e+08 | 0.00033 | 140000 | 40.8 |  |
| core streptavidin (wild type streptavidin) |  |  |  |  | Ka [5]: > 1e+10 M⁻¹; koff [5]: < 1e-05 s⁻¹; kon [5]: 220000 M⁻¹ s⁻¹; t/2 diss [5]: > 20 h |

Further lines, with some results ahead:

| Ka [1] [M⁻¹] | koff [1] [s⁻¹] | kon [1] [M⁻¹ s⁻¹] | t/2 diss [1] [min] | Substance | other results |
| --- | --- | --- | --- | --- | --- |
| 7e+07 | 0.00087 | 49000 | 13.4 | SA-Leu25Trp/Ser45Trp/Leu110Trp |  |
| 4.6e+07 | 0.0013 | 54000 | 8.7 | SA-Leu25Trp/Ser45Tyr/Leu110Trp |  |
| 2e+07 | 0.0052 | 100000 | 2.2 | SA-Ser27Arg/Ser45Arg/Trp120Ala |  |
| 2.7e+08 | 0.00054 | 130000 | 22.6 | SA-Ser45Tyr/Leu110Trp |  |
| 2.9e+08 | 0.00023 | 67000 | 49.4 | SA-Trp120Ala |  |
